The star is where a group is joined. Mu = morpholinocarbonyl cap, O=C(N1CCOCC1)*; Dox = doxorubicin
Key:
[1] = molecular target: PSA (Homo sapiens, UniProt P07288); details: incubation with enzymatically active PSA, HPLC detection; cited from earlier work
[2] = photophysical properties of pyropheophorbide acid (1O2 yield); type: physicochemical

Chain of PSA (P07288 25-261): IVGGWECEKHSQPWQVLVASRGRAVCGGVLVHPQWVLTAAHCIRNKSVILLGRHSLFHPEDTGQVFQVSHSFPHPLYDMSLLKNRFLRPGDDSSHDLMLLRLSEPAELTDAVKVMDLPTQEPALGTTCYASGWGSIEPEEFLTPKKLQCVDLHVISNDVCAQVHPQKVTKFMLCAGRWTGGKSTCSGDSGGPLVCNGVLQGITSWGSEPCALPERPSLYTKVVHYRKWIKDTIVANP

In the case of “Ac-HSSKLQ(SEQ ID NO:13)-Dox (Ac-HSSKLQ-Dox)”, the “hydrolysis by PSA” value [1] is given as “unable to hydrolyze”.

In the case of “Mu-HS SKLQ(SEQ ID NO:13)-Leu-Dox (Mu-HSSKLQL-Dox)”, the “hydrolysis by PSA” value [1] is listed as “resulted in production of Leu-Dox”.

With `C=Cc1c(C)c2cc3nc(c4c5[nH]c(cc6nc(cc1[nH]2)C(C)=C6CC)c(C)c5C(=O)C4)[C@@H](CCC(=O)O)[C@@H]3C` [Pyropheophorbide acid, pyropheophorbide acid] the 1O2 yield [2] was 45%.

From US8133482B2, “Activatable photodynamic therapy agents” (The Trustees of the University of Pennsylvania, priority 2003, dated 2012)
